According to patent US20240059766A1:

Experiments:
[1] = target: Tau225-240 phospho-peptide (pT231) (human); experiment: BLI
[2] = target: Tau217-234 phospho-peptide (pT217/pT220/pT231) (human); experiment: BLI
[3] = target: wtTau C2 (human); experiment: one point ELISA
[4] = target: Tau204-222 phospho-peptide (pS214/pT217) (human); experiment: one point ELISA
[5] = target: Tau204-222 phospho-peptide (pT212/pS214/pT217) (human); experiment: one point ELISA
[6] = target: Peptide 5 (tPeptide 5) (pT212/pS214/pT217) (human); experiment: one point ELISA
[7] = target: Tau204-222 phospho-peptide (pT212/pS214) (human); experiment: one point ELISA
[8] = target: Tau204-222 phospho-peptide (pT217) (human); experiment: one point ELISA
[9] = target: Tau204-222 phospho-peptide (pT212) (human); experiment: one point ELISA
[10] = target: Tau204-222 phospho-peptide (pS214) (human); experiment: one point ELISA
[11] = target: Tau204-222 phospho-peptide (pT212/pT217) (human); experiment: one point ELISA
[12] = target: Tau191-214 phospho-peptide (pS202) (human); experiment: one point ELISA
[13] = target: Tau191-214 phospho-peptide (pS199/pS202) (human); experiment: one point ELISA
[14] = target: Tau191-214 phospho-peptide (pS199/pS202/pT205) (human); experiment: one point ELISA
[15] = target: Tau191-214 phospho-peptide (pS202/pT205) (human); experiment: one point ELISA
[16] = target: Tau191-214 phospho-peptide (pS199) (human); experiment: one point ELISA
[17] = target: SCBio-4PEG-Peptide (Tau191-214) pS199-old (human); experiment: one point ELISA
[18] = target: Tau191-214 phospho-peptide (pS199/pT205) (human); experiment: one point ELISA
[19] = target: Tau191-214 phospho-peptide (pT205) (human); experiment: one point ELISA
[20] = target: AT8 peptide (amino acids 195-215 of tau) (human); experiment: BLI (Octet), peptide on streptavidin tip
Chain of AT8 peptide (amino acids 195-215 of tau) (human) (peptide, as listed by the source): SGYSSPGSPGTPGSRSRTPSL

Chain of SCBio-4PEG-Peptide (Tau191-214) pS199-old (human) (peptide, as listed by the source): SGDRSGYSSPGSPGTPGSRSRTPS
Chain of Tau191-214 phospho-peptide (pS199) (human) (peptide, as listed by the source): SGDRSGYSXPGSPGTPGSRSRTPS
Chain of Tau191-214 phospho-peptide (pT205) (human) (peptide, as listed by the source): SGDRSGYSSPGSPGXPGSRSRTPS
Chain of Tau191-214 phospho-peptide (pS202) (human) (peptide, as listed by the source): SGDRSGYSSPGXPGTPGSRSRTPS

Row | Substance | Kd [1] [pM] | Kd [2] [pM] | OD450 [3] [OD450 nm] | OD450 [4] [OD450 nm] | OD450 [5] [OD450 nm] | OD450 [6] [OD450 nm] | OD450 [7] [OD450 nm] | OD450 [8] [OD450 nm] | OD450 [9] [OD450 nm] | OD450 [10] [OD450 nm] | OD450 [11] [OD450 nm] | OD450 [12] [OD450 nm] | OD450 [13] [OD450 nm] | OD450 [14] [OD450 nm] | OD450 [15] [OD450 nm] | OD450 [16] [OD450 nm] | OD450 [17] [OD450 nm] | OD450 [18] [OD450 nm] | OD450 [19] [OD450 nm] | Kd [20] [pM]
1 | PT3-hIgG1 (antibody) |  |  | 1.2 | 3.13 | 3.17 | 2.81 | 3.14 | 3.13 | 3.16 | 3.14 | 3.16 |  |  |  |  |  |  |  |  | 
2 | anti-tau antibody AT8 (ThermoFisher, Waltham, MA) |  |  |  |  |  |  |  |  |  |  |  | 0.058 | 2.39 | 3.07 | 2.94 | 0.056 | 0.056 | 0.139 | 0.065 | 309

Now from value to substance:

Row | Kd [1] [pM] | Kd [2] [pM] | OD450 [3] [OD450 nm] | OD450 [4] [OD450 nm] | OD450 [5] [OD450 nm] | OD450 [6] [OD450 nm] | OD450 [7] [OD450 nm] | OD450 [8] [OD450 nm] | OD450 [9] [OD450 nm] | OD450 [10] [OD450 nm] | OD450 [11] [OD450 nm] | OD450 [12] [OD450 nm] | OD450 [13] [OD450 nm] | OD450 [14] [OD450 nm] | OD450 [15] [OD450 nm] | OD450 [16] [OD450 nm] | OD450 [17] [OD450 nm] | OD450 [18] [OD450 nm] | OD450 [19] [OD450 nm] | Kd [20] [pM] | Substance
3 | 6 | 5 |  |  |  |  |  |  |  |  |  |  |  |  |  |  |  |  |  |  | AT180 (antibody)
4 |  |  |  | 0.067 | 0.187 |  | 0.071 | 0.068 | 0.069 | 0.065 | 0.069 |  |  |  |  |  |  |  |  |  | anti-tau antibody AT100 (ThermoFisher, Waltham, MA)
5 |  |  | 0.124 | 0.059 | 0.053 | 0.141 | 0.059 | 0.083 | 0.06 | 0.061 | 0.057 | 0.055 | 0.062 | 0.245 | 0.249 | 0.058 | 0.06 | 0.09 | 0.054 |  | hIgG1 isotype control (antibody)
